In US10005829B2, “Synthetic linear apelin mimetics for the treatment of heart failure” (priority 2012, dated 2018):
*1 amine or outer side, *2 acyl side, *3 side chain or, on linkers, in order; H or OH if unused. [ ]: non-standard residue; d: D form. Tyr(Bzl) = L-benzyl-tyrosine, O=C([C@H](Cc1ccc(OCc2ccccc2)cc1)N[*:1])[*:2]; Phe(3,4-Cl2) = N[C@@H](Cc1ccc(Cl)c(Cl)c1)C(=O)O; 2Nal = N[C@@H](Cc1ccc2ccccc2c1)C(=O)O; Cha = N[C@@H](CC1CCCCC1)C(=O)O; pGlu = O=C1CC[C@@H](C(=O)O)N1; dNle = CCCC[C@@H](N)C(=O)O; Aib = CC(C)(N)C(=O)O

T1: APJ receptor (human, UniProt P35414 1-380)
T1 sequence (looked up): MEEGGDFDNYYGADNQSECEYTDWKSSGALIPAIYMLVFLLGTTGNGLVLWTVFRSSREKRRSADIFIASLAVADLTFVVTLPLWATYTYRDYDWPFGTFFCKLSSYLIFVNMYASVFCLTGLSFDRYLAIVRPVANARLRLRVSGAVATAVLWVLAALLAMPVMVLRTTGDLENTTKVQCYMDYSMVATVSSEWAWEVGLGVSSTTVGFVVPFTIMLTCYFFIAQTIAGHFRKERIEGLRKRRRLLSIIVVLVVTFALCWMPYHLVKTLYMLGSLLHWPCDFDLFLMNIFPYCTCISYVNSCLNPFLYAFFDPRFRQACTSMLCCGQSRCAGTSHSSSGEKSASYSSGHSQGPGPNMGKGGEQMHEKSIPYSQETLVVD

B1: pE-R-P-R-L-a-H-K-G-P-nle-a-tic-OH (peptide)
peptide: ERPRLAHKGPLAX
modifications: pE at 1; D-Ala at 6; D-Nle at 11; D-Ala at 12; D-Tic at 13
B2: pE-R-P-R-Y(Bzl)-a-H-K-G-P-nle-a-f-OH (peptide)
peptide: [pGlu]RPR[Tyr(Bzl)][dA]HKGP[dNle][dA][dF]-OH
B3: pE-R-P-R-Cha-a-H-K-G-P-nle-a-f-OH (peptide)
peptide: [pGlu]RPR[Cha][dA]HKGP[dNle][dA][dF]-OH
SMILES: CCCC[C@@H](NC(=O)[C@@H]1CCCN1C(=O)CNC(=O)[C@H](CCCCN)NC(=O)[C@H](Cc1c[nH]cn1)NC(=O)[C@@H](C)NC(=O)[C@H](CC1CCCCC1)NC(=O)[C@H](CCCNC(=N)N)NC(=O)[C@@H]1CCCN1C(=O)[C@H](CCCNC(=N)N)NC(=O)[C@@H]1CCC(=O)N1)C(=O)N[C@H](C)C(=O)N[C@H](Cc1ccccc1)C(=O)O
B4: pE-R-P-R-L-a-H-K-G-P-nle-F-OH (peptide)
peptide: [pGlu]RPRL[dA]HKGP[dNle]F-OH
SMILES: CCCC[C@@H](NC(=O)[C@@H]1CCCN1C(=O)CNC(=O)[C@H](CCCCN)NC(=O)[C@H](Cc1c[nH]cn1)NC(=O)[C@@H](C)NC(=O)[C@H](CC(C)C)NC(=O)[C@H](CCCNC(=N)N)NC(=O)[C@@H]1CCCN1C(=O)[C@H](CCCNC(=N)N)NC(=O)[C@@H]1CCC(=O)N1)C(=O)N[C@@H](Cc1ccccc1)C(=O)O
B5: pE-R-P-R-(2-Nal)-a-H-K-G-P-nle-a-f-OH (peptide)
peptide: [pGlu]RPR[2Nal][dA]HKGP[dNle][dA][dF]-OH
SMILES: CCCC[C@@H](NC(=O)[C@@H]1CCCN1C(=O)CNC(=O)[C@H](CCCCN)NC(=O)[C@H](Cc1c[nH]cn1)NC(=O)[C@@H](C)NC(=O)[C@H](Cc1ccc2ccccc2c1)NC(=O)[C@H](CCCNC(=N)N)NC(=O)[C@@H]1CCCN1C(=O)[C@H](CCCNC(=N)N)NC(=O)[C@@H]1CCC(=O)N1)C(=O)N[C@H](C)C(=O)N[C@H](Cc1ccccc1)C(=O)O
B6: pE-R-P-R-L-a-H-K-G-Pip-nle-a-f-OH (peptide)
peptide: ERPRLAHKGXLAF
modifications: pE (pyroglutamic acid) at 1; D-Ala at 6; Pip (pipecolic acid) at 10; D-Nle at 11; D-Ala at 12; D-Phe at 13
B7: pE-R-P-R-L-a-Aib-K-G-P-nle-a-f-OH (peptide)
peptide: [pGlu]RPRL[dA][Aib]KGP[dNle][dA][dF]-OH
SMILES: CCCC[C@@H](NC(=O)[C@@H]1CCCN1C(=O)CNC(=O)[C@H](CCCCN)NC(=O)C(C)(C)NC(=O)[C@@H](C)NC(=O)[C@H](CC(C)C)NC(=O)[C@H](CCCNC(=N)N)NC(=O)[C@@H]1CCCN1C(=O)[C@H](CCCNC(=N)N)NC(=O)[C@@H]1CCC(=O)N1)C(=O)N[C@H](C)C(=O)N[C@H](Cc1ccccc1)C(=O)O
B8: pE-R-P-R-L-(D-Leu)-H-K-G-P-nle-a-f-OH (peptide)
peptide: [pGlu]RPRL[dL]HKGP[dNle][dA][dF]-OH
SMILES: CCCC[C@@H](NC(=O)[C@@H]1CCCN1C(=O)CNC(=O)[C@H](CCCCN)NC(=O)[C@H](Cc1c[nH]cn1)NC(=O)[C@@H](CC(C)C)NC(=O)[C@H](CC(C)C)NC(=O)[C@H](CCCNC(=N)N)NC(=O)[C@@H]1CCCN1C(=O)[C@H](CCCNC(=N)N)NC(=O)[C@@H]1CCC(=O)N1)C(=O)N[C@H](C)C(=O)N[C@H](Cc1ccccc1)C(=O)O
B9: pE-R-P-R-L-a-F-K-G-P-nle-a-f-OH (peptide)
peptide: [pGlu]RPRL[dA]FKGP[dNle][dA][dF]-OH
SMILES: CCCC[C@@H](NC(=O)[C@@H]1CCCN1C(=O)CNC(=O)[C@H](CCCCN)NC(=O)[C@H](Cc1ccccc1)NC(=O)[C@@H](C)NC(=O)[C@H](CC(C)C)NC(=O)[C@H](CCCNC(=N)N)NC(=O)[C@@H]1CCCN1C(=O)[C@H](CCCNC(=N)N)NC(=O)[C@@H]1CCC(=O)N1)C(=O)N[C@H](C)C(=O)N[C@H](Cc1ccccc1)C(=O)O
B10: pE-R-P-R-(D-Leu)-S-a-K-G-P-nle-a-f-OH (peptide)
peptide: [pGlu]RPR[dL]S[dA]KGP[dNle][dA][dF]-OH
SMILES: CCCC[C@@H](NC(=O)[C@@H]1CCCN1C(=O)CNC(=O)[C@H](CCCCN)NC(=O)[C@@H](C)NC(=O)[C@H](CO)NC(=O)[C@@H](CC(C)C)NC(=O)[C@H](CCCNC(=N)N)NC(=O)[C@@H]1CCCN1C(=O)[C@H](CCCNC(=N)N)NC(=O)[C@@H]1CCC(=O)N1)C(=O)N[C@H](C)C(=O)N[C@H](Cc1ccccc1)C(=O)O
B11: pE-R-P-R-L-k-H-K-G-P-nle-a-f-OH (peptide)
peptide: [pGlu]RPRL[dK]HKGP[dNle][dA][dF]-OH
SMILES: CCCC[C@@H](NC(=O)[C@@H]1CCCN1C(=O)CNC(=O)[C@H](CCCCN)NC(=O)[C@H](Cc1c[nH]cn1)NC(=O)[C@@H](CCCCN)NC(=O)[C@H](CC(C)C)NC(=O)[C@H](CCCNC(=N)N)NC(=O)[C@@H]1CCCN1C(=O)[C@H](CCCNC(=N)N)NC(=O)[C@@H]1CCC(=O)N1)C(=O)N[C@H](C)C(=O)N[C@H](Cc1ccccc1)C(=O)O
B12: pE-R-P-R-(3,4-Cl2-F)-a-H-K-G-P-nle-a-f-OH (peptide)
peptide: [pGlu]RPR[Phe(3,4-Cl2)][dA]HKGP[dNle][dA][dF]-OH
SMILES: CCCC[C@@H](NC(=O)[C@@H]1CCCN1C(=O)CNC(=O)[C@H](CCCCN)NC(=O)[C@H](Cc1c[nH]cn1)NC(=O)[C@@H](C)NC(=O)[C@H](Cc1ccc(Cl)c(Cl)c1)NC(=O)[C@H](CCCNC(=N)N)NC(=O)[C@@H]1CCCN1C(=O)[C@H](CCCNC(=N)N)NC(=O)[C@@H]1CCC(=O)N1)C(=O)N[C@H](C)C(=O)N[C@H](Cc1ccccc1)C(=O)O
B13: pE-R-P-R-L-a-H-K-G-P-nle-a-d-OH (peptide)
peptide: [pGlu]RPRL[dA]HKGP[dNle][dA][dD]-OH
SMILES: CCCC[C@@H](NC(=O)[C@@H]1CCCN1C(=O)CNC(=O)[C@H](CCCCN)NC(=O)[C@H](Cc1c[nH]cn1)NC(=O)[C@@H](C)NC(=O)[C@H](CC(C)C)NC(=O)[C@H](CCCNC(=N)N)NC(=O)[C@@H]1CCCN1C(=O)[C@H](CCCNC(=N)N)NC(=O)[C@@H]1CCC(=O)N1)C(=O)N[C@H](C)C(=O)N[C@H](CC(=O)O)C(=O)O
B14: pE-R-P-R-L-a-H-K-G-P-nle-e-f-OH (peptide)
peptide: [pGlu]RPRL[dA]HKGP[dNle][dE][dF]-OH
SMILES: CCCC[C@@H](NC(=O)[C@@H]1CCCN1C(=O)CNC(=O)[C@H](CCCCN)NC(=O)[C@H](Cc1c[nH]cn1)NC(=O)[C@@H](C)NC(=O)[C@H](CC(C)C)NC(=O)[C@H](CCCNC(=N)N)NC(=O)[C@@H]1CCCN1C(=O)[C@H](CCCNC(=N)N)NC(=O)[C@@H]1CCC(=O)N1)C(=O)N[C@H](CCC(=O)O)C(=O)N[C@H](Cc1ccccc1)C(=O)O
B15: pE-R-P-R-L-a-H-K-G-P-nle-(D-Leu)-f-OH (peptide)
peptide: [pGlu]RPRL[dA]HKGP[dNle][dL][dF]-OH
SMILES: CCCC[C@@H](NC(=O)[C@@H]1CCCN1C(=O)CNC(=O)[C@H](CCCCN)NC(=O)[C@H](Cc1c[nH]cn1)NC(=O)[C@@H](C)NC(=O)[C@H](CC(C)C)NC(=O)[C@H](CCCNC(=N)N)NC(=O)[C@@H]1CCCN1C(=O)[C@H](CCCNC(=N)N)NC(=O)[C@@H]1CCC(=O)N1)C(=O)N[C@H](CC(C)C)C(=O)N[C@H](Cc1ccccc1)C(=O)O
B16: pE-R-P-R-L-a-h-K-G-P-nle-a-f-OH (peptide)
peptide: [pGlu]RPRL[dA][dH]KGP[dNle][dA][dF]-OH
B17: pE-R-P-R-L-a-H-K-G-P-nle-r-f-OH (peptide)
peptide: [pGlu]RPRL[dA]HKGP[dNle][dR][dF]-OH
SMILES: CCCC[C@@H](NC(=O)[C@@H]1CCCN1C(=O)CNC(=O)[C@H](CCCCN)NC(=O)[C@H](Cc1c[nH]cn1)NC(=O)[C@@H](C)NC(=O)[C@H](CC(C)C)NC(=O)[C@H](CCCNC(=N)N)NC(=O)[C@@H]1CCCN1C(=O)[C@H](CCCNC(=N)N)NC(=O)[C@@H]1CCC(=O)N1)C(=O)N[C@H](CCCNC(=N)N)C(=O)N[C@H](Cc1ccccc1)C(=O)O
B18: pE-R-P-R-L-a-H-K-G-P-nle-p-f-OH (peptide)
peptide: [pGlu]RPRL[dA]HKGP[dNle][dP][dF]-OH
SMILES: CCCC[C@@H](NC(=O)[C@@H]1CCCN1C(=O)CNC(=O)[C@H](CCCCN)NC(=O)[C@H](Cc1c[nH]cn1)NC(=O)[C@@H](C)NC(=O)[C@H](CC(C)C)NC(=O)[C@H](CCCNC(=N)N)NC(=O)[C@@H]1CCCN1C(=O)[C@H](CCCNC(=N)N)NC(=O)[C@@H]1CCC(=O)N1)C(=O)N1CCC[C@@H]1C(=O)N[C@H](Cc1ccccc1)C(=O)O
B19: pE-R-P-R-L-s-H-K-G-P-nle-a-f-OH (peptide)
peptide: [pGlu]RPRL[dS]HKGP[dNle][dA][dF]-OH
SMILES: CCCC[C@@H](NC(=O)[C@@H]1CCCN1C(=O)CNC(=O)[C@H](CCCCN)NC(=O)[C@H](Cc1c[nH]cn1)NC(=O)[C@@H](CO)NC(=O)[C@H](CC(C)C)NC(=O)[C@H](CCCNC(=N)N)NC(=O)[C@@H]1CCCN1C(=O)[C@H](CCCNC(=N)N)NC(=O)[C@@H]1CCC(=O)N1)C(=O)N[C@H](C)C(=O)N[C@H](Cc1ccccc1)C(=O)O
B20: pE-R-P-R-L-a-H-K-G-P-nle-a-y-OH (peptide)
peptide: [pGlu]RPRL[dA]HKGP[dNle][dA][dY]-OH
SMILES: CCCC[C@@H](NC(=O)[C@@H]1CCCN1C(=O)CNC(=O)[C@H](CCCCN)NC(=O)[C@H](Cc1c[nH]cn1)NC(=O)[C@@H](C)NC(=O)[C@H](CC(C)C)NC(=O)[C@H](CCCNC(=N)N)NC(=O)[C@@H]1CCCN1C(=O)[C@H](CCCNC(=N)N)NC(=O)[C@@H]1CCC(=O)N1)C(=O)N[C@H](C)C(=O)N[C@H](Cc1ccc(O)cc1)C(=O)O

What follows are binders tested against T1, APJ receptor (assay: cell-based or functional assay).

In order of falling “hAPJ Ca^2+ Flux EC50” value:
1. B11  1060 nM
2. B17  922 nM
3. B10  386 nM
4. B14  170 nM
5. B8  155 nM
6. B2  121 nM
7. B13  86.8 nM
8. B5  69.2 nM
9. B4  66.5 nM
10. B12  13.8 nM
11. B16  8.8 nM
12. B15  3.2 nM
13. B9  3.1 nM
14. B3  2.8 nM
15. B6  2.3 nM
16. B7  2.1 nM
17. B1  1.7 nM
18. B18  1.1 nM
19. B19  0.9 nM
20. B20  0.9 nM
